# Source: patent US11708418
# Legend:
# [1] = target: Daratumumab (Darzalex; lot GHS0901, Janssen, USA); assay: anti-CD38 (DARATUMUMAB) inhibition IAT, ability to titrate the antibody, CD38ecd-Fc-10H as reference
# [2] = target: Daratumumab (Darzalex; lot GHS0901, Janssen, USA); assay: IAT inhibition; 25 µl Darzalex dilution with 2 µl of 8.5 mg/ml protein
# Sequence of CD38ecd-flex-Fc-10H (P28907 45-300): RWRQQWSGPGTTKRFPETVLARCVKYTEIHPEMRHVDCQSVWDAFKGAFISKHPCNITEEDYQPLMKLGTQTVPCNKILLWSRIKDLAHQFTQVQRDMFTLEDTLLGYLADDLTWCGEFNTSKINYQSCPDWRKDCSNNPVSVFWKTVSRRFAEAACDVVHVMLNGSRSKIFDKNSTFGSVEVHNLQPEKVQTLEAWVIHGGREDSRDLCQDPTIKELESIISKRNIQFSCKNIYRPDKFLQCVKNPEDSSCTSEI
# Sequence of CD38ecd-Fc (P28907 45-300 limits assumed): as the sequence (P28907 45-300) above
Functionality [1] [%],anti-CD38 concentration completely inhibited [2] [mg/mL],Substance
50,,CD38ecd-Fc (from UniProt P28907 45-300) (Fc fusion)
100,0.125,CD38ecd-flex-Fc-10H (from UniProt P28907 45-300) (Fc fusion)
